A value given as a limit tells only on which side of the number the result lay.

Experiment [1] addresses Simian virus 40 large T antigen (L-Tag) (simian virus 40) (UniProt P03070).
Experiment [2] concerns the target Human wild-type DNA polymerase δ (WT Pol δ) (human) (UniProt P28340).
For experiment [3] the target is unchanged. Nature of the experiment: MST; His6-tagged Pol δ labelled with RED-Tris-NTA, 20 nM final; L-Tag titrated in 16 concentrations beginning with 500 nM; PBS-T buffer; incubated 40 min at 37°C; Monolith NT.115, premium-coated capillaries.

The substance “Human fork protection complex (FPC): Claspin, TIMELESS, Tipin (from UniProt Q9HAW4 1-1339; Q9UNS1 1-1208; Q9BVW5 1-301)” returned a saturation concentration of FPC for stimulating L-Tag unwinding in the bulk assay (25 nM L-Tag, 0.5 nM forked DNA) in experiment [1] of less than 8 nM. In experiment [1], “Human mini-chromosome maintenance protein 10 (Mcm10) (from UniProt Q7L590 1-875) (natural protein)” yielded a saturation concentration of Mcm10 for stimulating L-Tag unwinding in the bulk assay (25 nM L-Tag, 0.5 nM forked DNA) of less than 8 nM. Substance “Simian virus 40 large T antigen (L-Tag) (from UniProt P03070 1-708) (enzyme)” gave a lifetime of Pol δ–PCNA on DNA in single-molecule flow-stretching assays: primer extension alone against leading-strand synthesis with L-Tag in experiment [2] of 3 min. For the same substance, the Kd in experiment [3] was found to be 6.7 nM.

The values are drawn from publication PMC11347169.
